The target in assay [1] is EspB cyclic peptide #49 (positions 193-207) (Enteropathogenic Escherichia coli (EPEC)). Briefly: ELISA, plate coated with peptide #49, serially diluted mAb, anti-human IgG-HRP. In general terms: ELISA stands for enzyme-linked immunosorbent assay.
Assay [2] addresses EspB cyclic peptide #50 (positions 197-211) (Enteropathogenic Escherichia coli (EPEC)). Briefly: ELISA, plate coated with peptide #50, serially diluted mAb, anti-human IgG-HRP.

In turn, CTSAQKASQVAEEAADC (modifications not checked) [EspB cyclic peptide #49 (positions 193-207)] yielded an IC50 (read off the curve) with mAb-EspB-B7 of 0.8 µg/mL.

B1: mAb-EspB-B7 (antibody, V domains shown)
VH: EVQLLESGGGLVQPGGSLRLSCAASGFTFSHYAMNWVRQAPGKGLEWVSAINSNGDSTYYPDTVKDRFTISRDNSKNTLYLQMNSLRAEDTAVYYCARDRRAGYFDYWGQGTLVTVSS
VL: DIVLTQPPSASGTPGQRVTISCSGSRDNIGKNYVSWYQQLPGTAPKLLIYRNNQRPSGVPDRFSGSKSGTSASLAISGLRSEDEADYYCSAWDTSLNAYVFGPGTQLTVL
Usually EC50 (read off the curve) stands for the midpoint of the concentration-response curve. High values mean weaker potency, low ones greater potency. As to B1, the EC50 (read off the curve) in assay [1] and in assay [2] was 0.5 µg/mL throughout.

These data come from patent publication US20250264433A1.
